The series concerns the molecule itself. The series is described as follows: cryo-EM structure.

This is an account of results in PMC8826748 (Nature, 2021).

B1: near-full-length human calcium-sensing receptor (CaSR, residues 20-894), Flag-tagged (receptor)
chain: AAAYGPDQRAQKKGDIILGGLFPIHFGVAAKDQDLKSRPESVECIRYNFRGFRWLQAMIFAIEEINSSPALLPNLTLGYRIFDTCNTVSKALEATLSFVAQNKIDSLNLDEFCNCSEHIPSTIAVVGATGSGVSTAVANLLGLFYIPQVSYASSSRLLSNKNQFKSFLRTIPNDEHQATAMADIIEYFRWNWVGTIAADDDYGRPGIEKFREEAEERDICIDFSELISQYSDEEEIQHVVEVIQNSTAKVIVVFSSGPDLEPLIKEIVRRNITGKIWLASEAWASSSLIAMPQYFHVVGGTIGFALKAGQIPGFREFLKKVHPRKSVHNGFAKEFWEETFNCHLQEGAKGPLPVDTFLRGHEESGDRFSNSSTAFRPLCTGDENISSVETPYIDYTHLRISYNVYLAVYSIAHALQDIYTCLPGRGLFTNGSCADIKKVEAWQVLKHLRHLNFTNNMGEQVTFDECGDLVGNYSIINWHLSPEDGSIVFKEVGYYNVYAKKGERLFINEEKILWSGFSREVPFSNCSRDCLAGTRKGIIEGEPTCCFECVECPDGEYSDETDASACNKCPDDFWSNENHTSCIAKEIEFLSWTEPFGIALTLFAVLGIFLTAFVLGVFIKFRNTPIVKATNRELSYLLLFSLLCCFSSSLFFIGEPQDWTCRLRQPAFGISFVLCISCILVKTNRVLLVFEAKIPTSFHRKWWGLNLQFLLVFLCTFMQIVICVIWLYTAPPSSYRNQELEDEIIFITCHEGSLMALGFLIGYTCLLAAICFFFAFKSRKLPENFNEAKFITFSMLIFFIVWISFIPAYASTYGKFVSAVEVIAILAASFGLLACIFFNKIYIILFKPSRNTIEEVRCSTAAHAFKVAARATLRRSNV
With B1, the binding result is given as “binds”.
